Experimental data taken from PMC4263359, “Vesicular Stomatitis Virus Polymerase's Strong Affinity to Its Template Suggests Exotic Transcription Models” (PLoS Computational Biology, 2014).

Target: T1, VSV L protein (vesicular stomatitis virus (endogenous …, UniProt P03523 1-2109))
T1 construct: also called catalytic unit of the VSV polymerase; polymerase
Assay: co-sedimentation
Settings: partners not purified

T1 sequence (P03523 whole entry): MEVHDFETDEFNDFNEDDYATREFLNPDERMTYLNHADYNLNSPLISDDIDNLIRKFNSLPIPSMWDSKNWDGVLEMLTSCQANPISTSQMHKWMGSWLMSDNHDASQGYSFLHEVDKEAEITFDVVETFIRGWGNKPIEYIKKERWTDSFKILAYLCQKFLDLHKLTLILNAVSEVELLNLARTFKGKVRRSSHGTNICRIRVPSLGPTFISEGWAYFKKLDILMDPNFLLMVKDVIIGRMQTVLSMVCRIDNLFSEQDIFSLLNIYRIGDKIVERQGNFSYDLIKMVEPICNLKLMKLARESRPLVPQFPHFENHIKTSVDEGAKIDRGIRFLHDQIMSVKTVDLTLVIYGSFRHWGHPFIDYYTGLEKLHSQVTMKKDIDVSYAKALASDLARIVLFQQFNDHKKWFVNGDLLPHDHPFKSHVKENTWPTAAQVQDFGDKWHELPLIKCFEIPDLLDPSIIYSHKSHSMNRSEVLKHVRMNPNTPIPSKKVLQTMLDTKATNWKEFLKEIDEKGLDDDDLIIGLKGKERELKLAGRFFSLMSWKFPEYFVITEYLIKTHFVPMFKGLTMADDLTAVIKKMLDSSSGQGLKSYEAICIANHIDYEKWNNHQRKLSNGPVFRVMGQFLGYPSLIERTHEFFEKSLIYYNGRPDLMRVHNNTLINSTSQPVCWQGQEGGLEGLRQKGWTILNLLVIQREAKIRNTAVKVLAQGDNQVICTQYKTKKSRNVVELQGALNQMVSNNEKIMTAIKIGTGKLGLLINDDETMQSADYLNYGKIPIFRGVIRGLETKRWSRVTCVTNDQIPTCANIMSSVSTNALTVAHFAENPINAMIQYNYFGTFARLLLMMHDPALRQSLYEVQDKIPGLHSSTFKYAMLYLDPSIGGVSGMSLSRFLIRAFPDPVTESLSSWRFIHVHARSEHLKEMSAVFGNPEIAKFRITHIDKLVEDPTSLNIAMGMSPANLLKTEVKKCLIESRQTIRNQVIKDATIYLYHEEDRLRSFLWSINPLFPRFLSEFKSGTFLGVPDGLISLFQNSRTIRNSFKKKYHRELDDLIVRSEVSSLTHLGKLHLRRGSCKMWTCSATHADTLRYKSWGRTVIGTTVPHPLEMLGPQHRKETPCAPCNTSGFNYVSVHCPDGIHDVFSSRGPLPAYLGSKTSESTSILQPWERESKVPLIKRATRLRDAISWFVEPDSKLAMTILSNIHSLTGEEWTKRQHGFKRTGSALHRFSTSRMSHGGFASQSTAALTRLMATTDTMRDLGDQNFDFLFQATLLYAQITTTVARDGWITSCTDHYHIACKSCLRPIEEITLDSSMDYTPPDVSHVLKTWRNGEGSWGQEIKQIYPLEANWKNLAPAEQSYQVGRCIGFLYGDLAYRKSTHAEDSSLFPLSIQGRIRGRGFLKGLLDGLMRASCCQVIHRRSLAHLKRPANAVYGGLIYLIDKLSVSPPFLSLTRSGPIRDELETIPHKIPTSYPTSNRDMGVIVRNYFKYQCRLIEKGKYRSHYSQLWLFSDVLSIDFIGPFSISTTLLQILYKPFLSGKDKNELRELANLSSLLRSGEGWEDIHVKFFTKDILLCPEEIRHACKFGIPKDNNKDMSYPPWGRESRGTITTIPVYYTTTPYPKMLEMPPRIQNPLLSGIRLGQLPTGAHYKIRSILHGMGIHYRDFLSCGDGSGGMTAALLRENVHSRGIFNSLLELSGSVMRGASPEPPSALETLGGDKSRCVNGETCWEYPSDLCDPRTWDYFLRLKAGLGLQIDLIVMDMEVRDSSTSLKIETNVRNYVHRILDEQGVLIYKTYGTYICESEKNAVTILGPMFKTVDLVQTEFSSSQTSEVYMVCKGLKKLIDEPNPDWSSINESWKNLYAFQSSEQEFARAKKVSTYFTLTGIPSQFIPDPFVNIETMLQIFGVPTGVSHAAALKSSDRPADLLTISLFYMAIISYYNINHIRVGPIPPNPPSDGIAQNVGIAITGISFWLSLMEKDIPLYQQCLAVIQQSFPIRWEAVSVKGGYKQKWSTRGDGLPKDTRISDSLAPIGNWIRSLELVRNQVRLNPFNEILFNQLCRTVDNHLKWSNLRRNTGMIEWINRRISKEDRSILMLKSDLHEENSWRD

B1: full genome template (N-RNA) bound with P and L extracted from detergent-disrupted virions (complex)
chain 1: MSVTVKRIIDNTVIVPKLPANEDPVEYPADYFRKSKEIPLYINTTKSLSDLRGYVYQGLKSGNVSIIHVNSYLYGALKDIRGKLDKDWSSFGINIGKAGDTIGIFDLVSLKALDGVLPDGVSDASRTSADDKWLPLYLLGLYRVGRTQMPEYRKKLMDGLTNQCKMINEQFEPLVPEGRDIFDVWGNDSNYTKIVAAVDMFFHMFKKHECASFRYGTIVSRFKDCAALATFGHLCKITGMSTEDVTTWILNREVADEMVQMMLPGQEIDKADSYMPYLIDFGLSSKSPYSSVKNPAFHFWGQLTALLLRSTRARNARQPDDIEYTSLTTAGLLYAYAVGSSADLAQQFCVGDNKYTPDDSTGGLTTNAPPQGRDVVEWLGWFEDQNRKPTPDMMQYAKRAVMSLQGLREKTIGKYAKSEFDK
chain 2: MDNLTKVREYLKSYSRLDQAVGEIDEIEAQRAEKSNYELFQEDGVEEHTKPSYFQAADDSDTESEPEIEDNQGLYAQDPEAEQVEGFIQGPLDDYADEEVDVVFTSDWKPPELESDEHGKTLRLTSPEGLSGEQKSQWLSTIKAVVQSAKYWNLAECTFEASGEGVIMKERQITPDVYKVTPVMNTHPSQSEAVSDVWSLSKTSMTFQPKKASLQPLTISLDELFSSRGEFISVGGDGRMSHKEAILLGLRYKKLYNQARVKYSL
notes: also called whole genome template; copies: 1250 +
  Kd: 0.02 nM
